Reference: paper doi:10.1101/2023.10.09.561567 (bioRxiv, 2023)

Experiments:
[1] = biological target: HpARI2 (Heligmosomoides polygyrus bakeri); test: SPR
[2] = biological target: HpARI1 (Heligmosomoides polygyrus bakeri); test: SPR
[3] = biological target: HpARI3 (Heligmosomoides polygyrus bakeri); test: SPR
[4] = biological target: IL-33 released from CMT-64 cells (mouse (endogenous in CMT-64)) (UniProt Q8BVZ5); test: ELISA
[5] = biological target: T1, IL-33 released from CMT-64 cells (mouse (endogenous in CMT-64), UniProt Q8BVZ5 1-266); test: ELISA
T1 sequence (looked up): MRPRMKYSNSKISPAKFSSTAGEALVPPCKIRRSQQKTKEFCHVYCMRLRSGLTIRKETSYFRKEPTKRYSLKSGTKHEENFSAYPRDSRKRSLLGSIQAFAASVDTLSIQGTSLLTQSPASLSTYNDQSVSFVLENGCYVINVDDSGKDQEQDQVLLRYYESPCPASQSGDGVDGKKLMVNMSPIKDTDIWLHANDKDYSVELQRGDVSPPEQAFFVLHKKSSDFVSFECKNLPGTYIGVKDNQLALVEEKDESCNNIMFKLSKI

“mouse IL-33 (purified) (from UniProt Q8BVZ5 1-266) (ligand)” showed a Kd [1] of 0.04 nM, a Kd [2] of 0.04 nM and a Kd [3] of 0.4 nM.

HpARI1 (natural protein) showed an IC50 [4] of 0.8 nM.

Work on HpARI2 (natural protein) yielded an IC50 [4] of 0.8 nM.

B1: HpARI3 (natural protein, Heligmosomoides polygyrus bakeri, UniProt A0A183GRJ4 1-248, looked up)
chain: SLGCKFTDVEKDKGYTGMLVGGKRRESAANGQKVELVCGRGNHNYTCKSGILTEESYRQGRCGCEGILQMLLDKPKDSPMYDSVTYDPTPNTPTTVGKDGIWNGVDYRNGSTVRPYCDTGPIINGSPKAVCVSGKWVPKLGDCPKMCSISSLKENGKFLNVTATTTGDELNPRPREQTLIPIVRKVDKDKVQHGVKVVALCKAKYSTTAAENVQKFECDNGKWKPKPVPCS
modifications: chemically biotinylated with EZ-Link Sulfo-NHS-Biotin (for SPR only)
Molecule B1 has an IC50 [5] of about 6 nM.
